# Source: patent US20230220042A1 (SHANGHAI JIAO TONG UNIVERSITY SCHOOL OF MEDICINE, published 2023)
# Numbering of substitutions follows the chain as printed. Names may count otherwise.
# T1: FcγRIIA^131H (human, UniProt P12318 34-217, biotin-labeled)
# T1 construct: extracellular domain; Bought protein; also called RIIAH
# T1 sequence (looked up): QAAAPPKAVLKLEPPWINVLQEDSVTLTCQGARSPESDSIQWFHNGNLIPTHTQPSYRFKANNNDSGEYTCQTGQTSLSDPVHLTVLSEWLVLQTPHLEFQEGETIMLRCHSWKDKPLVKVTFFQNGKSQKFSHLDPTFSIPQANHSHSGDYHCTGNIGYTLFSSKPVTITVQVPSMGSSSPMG
# T2: FcγRIIA^131R (human, UniProt P12318 34-217, biotin-labeled)
# T2 construct: extracellular domain; Bought protein; also called RIIAR
# T2 sequence (looked up): T1 sequence (looked up) with H134R
# T3: FcγRIIB (human, UniProt P31994 43-217, biotin-labeled)
# T3 construct: extracellular domain; Bought protein; also called CD32b
# T3 sequence (looked up): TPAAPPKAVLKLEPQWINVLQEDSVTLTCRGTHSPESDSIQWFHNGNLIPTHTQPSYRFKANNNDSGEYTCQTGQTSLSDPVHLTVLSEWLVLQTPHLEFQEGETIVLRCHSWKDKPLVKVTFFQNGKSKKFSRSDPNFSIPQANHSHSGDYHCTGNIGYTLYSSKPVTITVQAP
# B1: anti-human OX40 IgG2 antibody Mut_21 (S267V/S298G/L328W) (antibody, name in EU numbering)
# heavy: QVQLQESGPGLVKPSGTLSLTCAVSGGSISSSIWWSWVRQPPGKGLEWIGEIHHSGNTNCNPSLKSRVTISIDKSKNQFSLKLTSVTAADTAVYYCARAGTGTTLDYWGQGTLVTVSSASTKGPSVFPLAPCSRSTSESTAALGCLVKDYFPEPVTVSWNSGALTSGVHTFPAVLQSSGLYSLSSVVTVPSSNFGTQTYTCNVDHKPSNTKVDKTVERKCCVECPPCPAPPVAGPSVFLFPPKPKDTLMISRTPEVTCVVVDVVHEDPEVQFNWYVDGVEVHNAKTKPREEQFNGTFRVVSVLTVVHQDWLNGKEYKCKVSNKGWPAPIEKTISKTKGQPREPQVYTLPPSREEMTKNQVSLTCLVKGFYPSDIAVEWESNGQPENNYKTTPPMLDSDGSFFLYSKLTVDKSRWQQGNVFSCSVMHEALHNHYTQKSLSLSPGK
# light: EIVLTQSPGTLSLSPGERATLSCRASQSVSGDYLAWYQQKLGQAPRLLIYGASIRATGIPDRFSGSGSGTDFTLTISKLEPEDFAVYYCQQYGSSPLTFGGGTKVEIKRTVAAPSVFIFPPSDEQLKSGTASVVCLLNNFYPREAKVQWKVDNALQSGNSQESVTEQDSKDSTYSLSSTLTLSKADYEKHKVYACEVTHQGLSSPVTKSFNRGEC
# notes: Substitutions in Eu numbering; entries include an unstated signal peptide
# B2: anti-human OX40 IgG2 antibody Mut_8 (V266L/L328W) (antibody, name in EU numbering)
# heavy: B1 heavy with V263L, V264S, G295S
# light: B1 light
# notes: as for B1
# B3: anti-human OX40 IgG2 antibody Mut_24 (V266L/S267E/H268S/E269G/P271T) (antibody, name in EU numbering)
# heavy: B1 heavy with V263L, V264E, H265S, E266G, P268T, G295S, W325L
# light: B1 light
# notes: as for B1
# B4: anti-human OX40 IgG2 antibody Mut_23 (V266L/S267E/E269K/P271G) (antibody, name in EU numbering)
# heavy: B1 heavy with V263L, V264E, E266K, P268G, G295S, W325L
# light: B1 light
# notes: as for B1
# B5: anti-human OX40 IgG2 antibody Mut_27 (V266L/S267E/H268S/P271V) (antibody, name in EU numbering)
# heavy: B1 heavy with V263L, V264E, H265S, P268V, G295S, W325L
# light: B1 light
# notes: as for B1
# B6: anti-human OX40 IgG2 antibody Mut_28 (P233G/S267E/S298G) (antibody)
# heavy: B1 heavy with P231G, V264E, W325L
# light: B1 light
# notes: as for B1
# B7: anti-human OX40 IgG2 antibody Mut_22 (V266L/S267M/H268E/P271Q) (antibody, name in EU numbering)
# heavy: B1 heavy with V263L, V264M, H265E, P268Q, G295S, W325L
# light: B1 light
# notes: as for B1
# B8: anti-human OX40 IgG2 antibody Mut_30 (V234Q/V266L/S267E/H268S/E269V) (antibody)
# heavy: B1 heavy with V232Q, V263L, V264E, H265S, E266V, G295S, W325L
# light: B1 light
# notes: as for B1
# B9: anti-human OX40 IgG2 antibody Mut_25 (V234Q/V266L/S267D/H268D/E269D/P271Q) (antibody)
# heavy: B1 heavy with V232Q, V263L, V264D, H265D, E266D, P268Q, G295S, W325L
# light: B1 light
# notes: as for B1
# Biological target: T4, FcγRI (human, UniProt P12314 16-292, biotin-labeled)
# T4 construct: extracellular domain; Bought protein; also called CD64
# Assay: ELISA, coated antibody, biotin-FcγR;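 for Absorbance value: antibody coated at 2 µg/mL at 100 µL per well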
# T4 sequence (P12314 16-292): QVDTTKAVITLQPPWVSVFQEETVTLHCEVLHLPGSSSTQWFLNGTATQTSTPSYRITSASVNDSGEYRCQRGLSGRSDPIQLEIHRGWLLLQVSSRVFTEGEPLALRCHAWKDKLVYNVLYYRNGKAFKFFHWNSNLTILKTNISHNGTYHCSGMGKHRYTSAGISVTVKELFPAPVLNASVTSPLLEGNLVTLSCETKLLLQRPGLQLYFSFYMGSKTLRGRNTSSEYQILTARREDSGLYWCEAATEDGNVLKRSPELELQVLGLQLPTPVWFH
Absorbance value [A650],Relative binding affinity RI/G1 [ratio],Binder
0.16,0.06,B1
0.14,0.05,B2
0.12,0.05,B3
0.11,0.04,B4
0.18,0.07,B5
0.13,0.05,B6
0.12,0.05,B7
0.12,0.05,B8
0.12,0.05,B9

# Biological target: T5, FcγRIIIA^158V (human, UniProt P08637 17-208, biotin-labeled)
# T5 construct: extracellular domain; Bought protein; also called RIIIAV; CD16a 158V
# Assay: ELISA, coated antibody, biotin-FcγR;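 for Absorbance value: antibody coated at 2 µg/mL at 100 µL per well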
# T5 sequence (P08637 17-208 F176V): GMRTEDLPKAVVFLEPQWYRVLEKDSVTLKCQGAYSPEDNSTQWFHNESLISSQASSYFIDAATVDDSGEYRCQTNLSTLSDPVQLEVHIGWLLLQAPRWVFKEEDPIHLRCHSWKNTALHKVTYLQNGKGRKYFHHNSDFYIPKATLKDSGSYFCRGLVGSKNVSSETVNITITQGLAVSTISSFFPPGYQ
Absorbance value [A650],Relative binding affinity RIIIAV/G1 [ratio],Binder
0.06,0.06,B1
0.07,0.07,B2
0.08,0.08,B3
0.06,0.06,B4
0.1,0.11,B5
0.08,0.08,B6
0.07,0.07,B7
0.06,0.07,B8
0.05,0.06,B9

# Biological target: T1, FcγRIIA^131H
# Assay: ELISA, coated antibody, biotin-FcγR;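 for Absorbance value: antibody coated at 2 µg/mL at 100 µL per well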
Absorbance value [A650],Relative binding affinity RIIAH/G1 [ratio],Binder
0.09,0.16,B1
0.52,0.9,B2
0.48,0.84,B3
0.43,0.75,B4
0.48,0.84,B5
0.14,0.24,B6
0.33,0.57,B7
0.18,0.32,B8
0.06,0.1,B9

# Biological target: T6, FcγRIIIA^158F (human, UniProt P08637 17-208, biotin-labeled)
# T6 construct: extracellular domain; Bought protein; also called RIIIAF
# Assay: ELISA, coated antibody, biotin-FcγR;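 for Absorbance value: antibody coated at 2 µg/mL at 100 µL per well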
# T6 sequence (P08637 17-208): as the sequence (P08637 17-208 F176V) above, with V160F counted along it
Absorbance value [A650],Relative binding affinity RIIIAF/G1 [ratio],Binder
0.06,0.31,B1
0.08,0.44,B2
0.08,0.42,B3
0.07,0.35,B4
0.09,0.49,B5
0.08,0.44,B6
0.06,0.33,B7
0.06,0.33,B8
0.07,0.36,B9

# Biological target: T2, FcγRIIA^131R
# Assay: ELISA, coated antibody, biotin-FcγR;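 for Absorbance value: antibody coated at 2 µg/mL at 100 µL per well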
Absorbance value [A650],Relative binding affinity RIIAR/G1 [ratio],Binder
0.11,0.41,B1
0.34,1.3,B2
0.35,1.35,B3
0.38,1.44,B4
0.28,1.06,B5
0.35,1.35,B6
0.31,1.17,B7
0.26,1.01,B8
0.3,1.13,B9

# Biological target: T3, FcγRIIB
# Assay: ELISA, coated antibody, biotin-FcγR;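 for Absorbance value: antibody coated at 2 µg/mL at 100 µL per well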
Absorbance value [A650],Increased factor of RIIB binding compared with wild-type IgG2 [fold],Relative binding affinity RIIB/G1 [ratio],Binder
0.32,4.23,0.42,B1
1.07,14.3,1.42,B2
1,13.3,1.32,B3
0.97,13,1.29,B4
0.7,9.29,0.92,B5
0.88,11.8,1.17,B6
0.93,12.3,1.22,B7
0.8,10.7,1.06,B8
0.86,11.5,1.14,B9

# Biological target: T3, FcγRIIB
# Assay: ELISA; relative affinity to FcγRIIB over that to FcγRIIA131R
row,RIIB/RIIAR [ratio],Binder
1,1.03,B1
2,1.09,B2
3,0.98,B3
4,0.9,B4
5,0.87,B5
6,0.87,B6
7,1.05,B7
8,1.05,B8
9,1.01,B9
